From the RNAGym collection of RNA variant scans (doi:10.7554/elife.80360) come the findings set out here.

The chains are these.
B1: HDV Ribozyme (parent)
chain: GGCCGGCAUGGUCCCAGCCUCCUCGCUGGCGCCGGCUGGGCAACAUUCCGAGGGGACCGUCCCCUCGGUAAUGGCGAAUGGGACCCA

Variants of B1 are the subject of the data set. Kind of data set: self-cleavage, relative activity (ratio to wild type); higher = more cleavage; co-transcriptional.
For GGCAGGCAUGGUCCCCGCCUCCUCGCUGGCGCCGGCUGGGCAACAUUCCGAGGGGACCGUCCCCUCGGUAAUGGCGAAUGGGACCCA [C4A A16C], the self-cleavage came out at 0.0339.

Regarding GGCAGGCAUGGUCCCGGCCUCCUCGCUGGCGCCGGCUGGGCAACAUUCCGAGGGGACCGUCCCCUCGGUAAUGGCGAAUGGGACCCA [C4A A16G], the self-cleavage came to 0.344. GGCAGGCAUGGUCCCAGCCUCCUCGCUGGCGCCGGCUGGGCAACAUUCCGAGGGGACCGUCCCCUCGGUAAUGGCGAUUGGGACCCA [C4A A78U]: the self-cleavage was 0.0437. Turning to GGUCGGCAUGGUCCCAGCCUCCUCGCAGGCGCCGGCUGGGCAACAUUCCGAGGGGACCGUCCCCUCGGUAAUGGCGAAUGGGACCCA [C3U U27A], the self-cleavage was 0.701. Take GGUCGGCAUGGUCCCAGCCUCCUCGCUGGCGCCGGCAGGGCAACAUUCCGAGGGGACCGUCCCCUCGGUAAUGGCGAAUGGGACCCA [C3U U37A]: the self-cleavage was 0.128. As for GGUCGGCAUGGUCCCAGCCUCCUCGCUGGCGCCGGCUGGGCAACAUUCCGAGGGGACCGUCCCCUCGGUAAUGGCGAAUGGUACCCA [C3U G82U], the figure is 0.332; as for GGUCGGCAUGGUCCCAGCCUCCUCGCUGGCGCCAGCUGGGCAACAUUCCGAGGGGACCGUCCCCUCGGUAAUGGCGAAUGGGACCCA [C3U G34A], 0.106. On to GGUCGGCAUGGUCCCAGCCUCCUCGCUGGCGCCCGCUGGGCAACAUUCCGAGGGGACCGUCCCCUCGGUAAUGGCGAAUGGGACCCA [C3U G34C], for which the self-cleavage is 0.182. Consider GGUCGGCAUGGUCCCAGCCUCCACGCUGGCGCCGGCUGGGCAACAUUCCGAGGGGACCGUCCCCUCGGUAAUGGCGAAUGGGACCCA [C3U U23A], for which the self-cleavage is 0.9. As to GGUCGGCAUGGUCCCAGCCUCCCCGCUGGCGCCGGCUGGGCAACAUUCCGAGGGGACCGUCCCCUCGGUAAUGGCGAAUGGGACCCA [C3U U23C], the self-cleavage stood at 0.776.

Regarding GGUCGGCAUGGUCCCAGCCUCCGCGCUGGCGCCGGCUGGGCAACAUUCCGAGGGGACCGUCCCCUCGGUAAUGGCGAAUGGGACCCA [C3U U23G], the self-cleavage was found to be 0.743. Consider GGCAGGCAUGGUCCCAGCCUCCUCGCUGGCGCCGGCUGGGCAACAUUCCGAGGGGACCGUCCCCUCGGUGAUGGCGAAUGGGACCCA [C4A A70G], for which the self-cleavage was 0.189.

With GGCAGGCAUGGUCCCAGCCUCCUCGCUGGCGCCGGCUGGGCAACAUUCCGAGGGGACCGUCCCCUCGGUUAUGGCGAAUGGGACCCA [C4A A70U], the self-cleavage stood at 0.252. In the case of GGCAGGCAUGGUCCCAGCCUCCUCGCUGGCGCCGGCUGGGCGACAUUCCGAGGGGACCGUCCCCUCGGUAAUGGCGAAUGGGACCCA [C4A A42G], the self-cleavage was found to be 0.0875. Under GGUCGGCAUGGUCCCAGCCUCCUCGCUGGCGCCGGCUGGGCAACAUUCCGAGGGGACCGUCCCCUCGGUAAUGGCGAAUGAGACCCA [C3U G81A] stands 0.17; under GGCAGGCAUGGUCCCAGCCUCCUCGUUGGCGCCGGCUGGGCAACAUUCCGAGGGGACCGUCCCCUCGGUAAUGGCGAAUGGGACCCA [C4A C26U], 0.415. GGCAGGCAUGGUCCCAGCCUCCUCGAUGGCGCCGGCUGGGCAACAUUCCGAGGGGACCGUCCCCUCGGUAAUGGCGAAUGGGACCCA [C4A C26A]: the self-cleavage was 0.332. In the case of GGUCGGCAUGGUCCCAGCCUCCUCGCUGGCGCCGGCUGGGCAACAUUCCUAGGGGACCGUCCCCUCGGUAAUGGCGAAUGGGACCCA [C3U G50U], the self-cleavage worked out at 0.728. GGCAGGCAUGGUGCCAGCCUCCUCGCUGGCGCCGGCUGGGCAACAUUCCGAGGGGACCGUCCCCUCGGUAAUGGCGAAUGGGACCCA [C4A C13G]: the self-cleavage turned out to be 0.0692.

GGUCGGCAAGGUCCCAGCCUCCUCGCUGGCGCCGGCUGGGCAACAUUCCGAGGGGACCGUCCCCUCGGUAAUGGCGAAUGGGACCCA [C3U U9A]: the self-cleavage amounted to 0.904. On to GGUCGGCAUGGUCCCAGCCUCCUCGCUGACGCCGGCUGGGCAACAUUCCGAGGGGACCGUCCCCUCGGUAAUGGCGAAUGGGACCCA [C3U G29A], for which the self-cleavage was found to be 0.0154. As for GGCAGGCAUGGUCCCAGCCUCCUCGCUGGCGCCGGCUGGGCAAGAUUCCGAGGGGACCGUCCCCUCGGUAAUGGCGAAUGGGACCCA [C4A C44G], the self-cleavage amounted to 0.0665. Take GGCAGGCAUGGUCCCAGCCUCCUCGCUGGCGCCGGCUGGGCAAUAUUCCGAGGGGACCGUCCCCUCGGUAAUGGCGAAUGGGACCCA [C4A C44U]: the self-cleavage was 0.0739. Regarding GGCAGGAAUGGUCCCAGCCUCCUCGCUGGCGCCGGCUGGGCAACAUUCCGAGGGGACCGUCCCCUCGGUAAUGGCGAAUGGGACCCA [C4A C7A], the self-cleavage turned out to be 0.0449. In the case of GGCAGGCAUGGUCCAAGCCUCCUCGCUGGCGCCGGCUGGGCAACAUUCCGAGGGGACCGUCCCCUCGGUAAUGGCGAAUGGGACCCA [C4A C15A], the self-cleavage amounted to 0.198. Under GGUCGGCAUGGUCCCAGCCUCCUCGCUGGCGCCGGCUGGGCAACAUUCCGAGGGGACCGGCCCCUCGGUAAUGGCGAAUGGGACCCA [C3U U60G] stands 0.591; under GGUCGGCAUGGUCCCAGCCUCCUCGCUGGCGCCGGCUGGGCAACAUUCCGAGGGGACCGACCCCUCGGUAAUGGCGAAUGGGACCCA [C3U U60A], 0.769. As to GGUCGGCAUGGUCCCAGCCUCCUCGCUGGCGCCGGCUGGGCAACAUUCCGAGGGGACCGUCCCCUCAGUAAUGGCGAAUGGGACCCA [C3U G67A], the self-cleavage stood at 0.822.

For the variant GGUCGGCAUGGUCCCAGCCUCCUCGCUGGCGCCGGCUGGGCAACAUUCCGAGGGGACCGUCCCCUCUGUAAUGGCGAAUGGGACCCA [C3U G67U], the self-cleavage stood at 0.752. For GGUCGGCAUGGCCCCAGCCUCCUCGCUGGCGCCGGCUGGGCAACAUUCCGAGGGGACCGUCCCCUCGGUAAUGGCGAAUGGGACCCA [C3U U12C], the self-cleavage amounted to 0.107. In the case of GGCAGGCAUGGUCCCAGCCUCCUCGCUGGCGCUGGCUGGGCAACAUUCCGAGGGGACCGUCCCCUCGGUAAUGGCGAAUGGGACCCA [C4A C33U], the self-cleavage was 0.104. On to GGUCGGCAUGGUCCCAGCCUCCUCGCUGGCGCCGGCUGGGCAACAUUCCGAGGGGACCGUCCCCUCGGGAAUGGCGAAUGGGACCCA [C3U U69G], for which the self-cleavage was 0.649.
